# Data from article PMC12985673.
# Several values for one entry are separate records, joined by “and”; a condition that tells them apart may be missing. Equal values may be shown once. Read-outs that look alike come from different tables or passages of the source.
# How the values were obtained:
# [1] = molecular target: NRXβ1 ECD (amino acids 81 to 311), His-tagged, labelled with Alexa Fluor 488 (mouse) (UniProt P0DI97); assay: fluorescence polarisation; 8 nM NRXβ1 ECD–AF488, NL2 or NL2mut titrated 15 nM to 8 μM; 20 mM Hepes pH 7.5, 150 mM NaCl, 1 mM MgCl2, 0.5 mM CaCl2; triplicate; Hill fit with shared slope; apparent
# [2] = molecular target: Neurexin β1 ECD (UniProt P58400); conditions: cited from earlier work
# Sequence of Neurexin β1 ECD (P58400 51-396): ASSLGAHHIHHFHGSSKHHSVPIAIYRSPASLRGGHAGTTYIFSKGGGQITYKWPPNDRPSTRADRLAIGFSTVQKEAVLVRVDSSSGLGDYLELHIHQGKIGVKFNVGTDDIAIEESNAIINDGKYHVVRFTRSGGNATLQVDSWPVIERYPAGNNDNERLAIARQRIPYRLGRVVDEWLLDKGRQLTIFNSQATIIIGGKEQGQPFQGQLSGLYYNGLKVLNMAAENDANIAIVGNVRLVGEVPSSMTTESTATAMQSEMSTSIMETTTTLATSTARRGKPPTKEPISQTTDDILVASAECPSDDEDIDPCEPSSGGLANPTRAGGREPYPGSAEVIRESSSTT
# [3] = molecular target: Neurexin β1 (UniProt P58400); conditions: cited from earlier work
# Sequence of Neurexin β1 (P58400 51-396): as above
# [4] = molecular target: Neurexin β1 (UniProt P58400); conditions: cited from earlier work; remark: listed apart in the source
# [5] = molecular target: Neurexin β1 ECD (UniProt P58400); conditions: cited from earlier work; remark: listed apart in the source
# [6] = molecular target: full-length neuroligin 2 (NL2), mouse, without the splice insert at site A (mouse) (UniProt Q69ZK9); assay: proteoliposome colocalisation (TIRF microscopy); as a5 at 2x protein: NL2 1:5 and NRXβ1 1:10 protein:lipid (w/w); all detections
# Sequence of full-length neuroligin 2 (NL2), mouse, without the splice insert at site A (mouse) (Q69ZK9 other isoform, or with tags, fused parts or gaps): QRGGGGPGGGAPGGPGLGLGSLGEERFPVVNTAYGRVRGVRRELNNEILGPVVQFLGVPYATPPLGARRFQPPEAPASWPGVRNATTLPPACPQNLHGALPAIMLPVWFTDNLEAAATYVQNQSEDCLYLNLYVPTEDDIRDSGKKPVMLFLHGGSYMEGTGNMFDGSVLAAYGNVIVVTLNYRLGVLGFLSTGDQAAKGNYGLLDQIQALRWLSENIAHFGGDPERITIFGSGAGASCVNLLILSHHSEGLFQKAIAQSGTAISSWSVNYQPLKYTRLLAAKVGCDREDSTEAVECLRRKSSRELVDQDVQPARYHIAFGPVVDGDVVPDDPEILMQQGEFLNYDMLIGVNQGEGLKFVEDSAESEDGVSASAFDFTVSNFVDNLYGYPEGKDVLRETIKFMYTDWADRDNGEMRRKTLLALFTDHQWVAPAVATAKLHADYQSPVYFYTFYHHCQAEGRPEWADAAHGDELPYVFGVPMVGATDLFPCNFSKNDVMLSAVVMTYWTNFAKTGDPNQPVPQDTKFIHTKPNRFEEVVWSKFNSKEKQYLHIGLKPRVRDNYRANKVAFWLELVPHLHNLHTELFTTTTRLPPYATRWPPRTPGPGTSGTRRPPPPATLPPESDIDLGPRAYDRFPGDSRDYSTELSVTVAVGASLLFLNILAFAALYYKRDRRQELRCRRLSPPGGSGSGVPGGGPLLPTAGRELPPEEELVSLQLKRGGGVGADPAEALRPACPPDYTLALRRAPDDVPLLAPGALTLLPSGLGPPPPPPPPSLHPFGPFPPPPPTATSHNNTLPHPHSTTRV
# [7] = molecular target: full-length neuroligin 2 (NL2), mouse, without the splice insert at site A (mouse) (UniProt Q69ZK9); assay: cryo-EM structure; NL2 and NRXβ1 purified separately, mixed at one-to-one molar ratio, ~20 μM (monomer) each, on ice 10 min; only the ECDs resolved; Ca2+ at the interface
# [8] = molecular target: full-length neuroligin 2 (NL2), mouse, without the splice insert at site A (mouse) (UniProt Q69ZK9); assay: proteoliposome colocalisation (TIRF microscopy); as a5 at 2x protein: NL2 1:5 and NRXβ1 1:10 protein:lipid (w/w); all detections; remark: listed apart in the source
# Sequence of full-length neuroligin 2 (NL2), mouse, without the splice insert at site A (Q69ZK9 other isoform, or with tags, fused parts or gaps): as above
# Sequence of Neuroligin 3 (Q9NZ94 38-709): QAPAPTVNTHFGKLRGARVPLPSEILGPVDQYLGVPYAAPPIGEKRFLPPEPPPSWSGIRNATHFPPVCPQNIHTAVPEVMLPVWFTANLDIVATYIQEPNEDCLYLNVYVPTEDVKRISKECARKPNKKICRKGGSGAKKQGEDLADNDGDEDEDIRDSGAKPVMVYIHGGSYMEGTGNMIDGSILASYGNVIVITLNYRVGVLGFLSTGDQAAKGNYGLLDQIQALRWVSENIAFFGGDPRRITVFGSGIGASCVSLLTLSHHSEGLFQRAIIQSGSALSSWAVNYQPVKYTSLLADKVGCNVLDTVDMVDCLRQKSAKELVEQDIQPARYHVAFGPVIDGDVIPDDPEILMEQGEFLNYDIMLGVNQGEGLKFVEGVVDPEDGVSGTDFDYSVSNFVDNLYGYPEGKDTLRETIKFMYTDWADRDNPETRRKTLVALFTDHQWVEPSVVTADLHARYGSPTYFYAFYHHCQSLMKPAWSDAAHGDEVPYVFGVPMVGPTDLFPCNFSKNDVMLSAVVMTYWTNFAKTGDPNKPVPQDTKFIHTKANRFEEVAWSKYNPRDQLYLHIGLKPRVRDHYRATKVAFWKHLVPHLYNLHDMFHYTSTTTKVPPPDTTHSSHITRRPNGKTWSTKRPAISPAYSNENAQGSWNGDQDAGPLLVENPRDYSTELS
# Sequence of Neuroligin 1 ECD (Q8N2Q7 46-717): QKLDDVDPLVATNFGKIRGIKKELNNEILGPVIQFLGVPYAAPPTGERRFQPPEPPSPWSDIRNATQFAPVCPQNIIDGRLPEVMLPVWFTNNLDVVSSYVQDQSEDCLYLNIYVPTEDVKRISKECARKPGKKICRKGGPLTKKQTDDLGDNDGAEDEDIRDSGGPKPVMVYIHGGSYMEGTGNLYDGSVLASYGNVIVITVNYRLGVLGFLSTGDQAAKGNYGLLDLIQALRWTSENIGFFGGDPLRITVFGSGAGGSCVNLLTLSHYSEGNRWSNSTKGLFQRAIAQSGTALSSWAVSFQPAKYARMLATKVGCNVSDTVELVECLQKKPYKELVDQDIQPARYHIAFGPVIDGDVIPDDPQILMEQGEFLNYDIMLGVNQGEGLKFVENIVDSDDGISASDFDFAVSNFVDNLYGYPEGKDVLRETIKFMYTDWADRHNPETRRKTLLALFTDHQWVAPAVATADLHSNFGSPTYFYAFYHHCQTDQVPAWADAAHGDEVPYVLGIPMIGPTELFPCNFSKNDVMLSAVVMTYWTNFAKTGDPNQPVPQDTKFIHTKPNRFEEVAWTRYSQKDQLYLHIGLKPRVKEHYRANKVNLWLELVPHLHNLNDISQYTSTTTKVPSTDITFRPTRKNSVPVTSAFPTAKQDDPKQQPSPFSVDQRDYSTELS
# Sequence of Neuroligin 2 (Q8NFZ4 15-677): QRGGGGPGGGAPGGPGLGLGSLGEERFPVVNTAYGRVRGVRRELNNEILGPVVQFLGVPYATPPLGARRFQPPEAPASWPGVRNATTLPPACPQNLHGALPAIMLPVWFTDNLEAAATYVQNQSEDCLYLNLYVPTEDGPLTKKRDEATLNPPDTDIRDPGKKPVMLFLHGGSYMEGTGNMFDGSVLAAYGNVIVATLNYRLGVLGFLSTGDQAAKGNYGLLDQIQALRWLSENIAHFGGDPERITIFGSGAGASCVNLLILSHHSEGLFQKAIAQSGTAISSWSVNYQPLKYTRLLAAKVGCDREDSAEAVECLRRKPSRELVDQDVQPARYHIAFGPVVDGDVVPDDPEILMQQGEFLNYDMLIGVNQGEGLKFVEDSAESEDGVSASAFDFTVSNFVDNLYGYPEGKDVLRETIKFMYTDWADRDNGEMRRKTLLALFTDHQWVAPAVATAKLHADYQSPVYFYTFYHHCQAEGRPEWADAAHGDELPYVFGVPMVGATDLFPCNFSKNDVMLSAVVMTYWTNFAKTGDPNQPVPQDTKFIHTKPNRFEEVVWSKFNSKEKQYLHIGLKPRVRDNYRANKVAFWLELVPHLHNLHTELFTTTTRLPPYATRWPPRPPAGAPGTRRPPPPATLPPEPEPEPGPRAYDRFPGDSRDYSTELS
substance,measurement,setting,value
NL2 H279Y G282K mutant (from UniProt Q69ZK9 170-836) (receptor),fold increase of affinity against wild-type NL2,[1],30 fold
Neuroligin 1 ECD (from UniProt Q8N2Q7),Kd,[2],10 nM
Neuroligin 2 (from UniProt Q8NFZ4),Kd,[3],10 µM
Neuroligin 3 (from UniProt Q9NZ94),Kd,[4],1000 nM
Neuroligin 4 ECD (from UniProt Q8N0W4),Kd,[5],100 nM
"full-length neurexin β1 (NRXβ1), mouse, without the insert at splice site 4 (from UniProt P0DI97 47-468) (receptor)",fraction of vesicles colocalised,[6],> 0.5
same,stoichiometry N (NRXβ1 per NL2 dimer),[7],2 and 1
same,fraction of vesicles colocalised,[8],0.6
"full-length neuroligin 2 (NL2), mouse, without the splice insert at site A (from UniProt Q69ZK9 15-836) (receptor)",Kd,[1],6 µM
